assay: yeast display, Sf9 membrane polyspecificity reagent, FACS + sequencing; frameworks hold sequencing errors
Method in brief: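 After 36–48 hours of galactose induction, yeast (Saccharomyces cerevisiae BJ5465) displaying a synthetic nanobody library were stained at 4 °C for 1 hour with 10% biotinylated, detergent-solubilized Sf9 membrane reagent. Streptavidin microbeads enriched the stained cells before FACS sorting into low and high (top ~1%) gates on anti-HA and streptavidin fluorescence. Each clone's polyreactivity label reflects its gate of origin.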

Which “polyreactivity (PSR sort gate)” value does the source give for “QVQLVESGGGLVQAGGSLRLSCAASGSIFPAYAMGWYRQAPGKERELVAAITDRCGSTYYADSVKGRFTISRDNANNTVSLQMNSLKPEDTYWGQGTQVTVSS” here?
Its value is “low polyreactivity”.

Which “polyreactivity (PSR sort gate)” value does the source give for “QVQLVESGGGLVQAGGSLRLSCAASGLIFYPYAMGWYRQAPGKERELVAGISSSGDSTYYADSVKGRFTISRDNAKNTVYLEMNSLKPEDTAVYYCNADGWYFEYWGQGTHVTVSS” here?
The value was “low polyreactivity”.

With “QVQLVESGVGLVQAGGSLRLSCAASGIIFKNYTRGWDRPAPWKEWELVAAISWRGGRTYYADSVKGRFTISRDNAKNTVYLQMNSLKPEDTAVYYCAKELYVSYRGGPWVDYWGQGTQVTVSS” as the sequence, how does the “polyreactivity (PSR sort gate)” value read?
Its value is “high polyreactivity”.

With “QVQLVESGGGLVQAGGSLRLSSAASGSTFYYYAMGWYRQAPGKERELVATISRSTARTFYADSVKGRFTISRDNEKNTVYLQMNSLKPEDTAVYYCAATSYVSVYPSYYRFGTYGYWGQGTQVTVSS” as the sequence, how does the “polyreactivity (PSR sort gate)” value read?
Its value is “high polyreactivity”.

With “QVQLVESGGGLVQAGGSLRLSCAASGRIFSVNAMVWYRPAPGKERELVAAITGSGTITYYADSVKGRFTISRDNAKNTVYLQMSSLKPEDTAVYYCAARPVLRYYAGYYYWGQGTQVTVSS” as the sequence, how does the “polyreactivity (PSR sort gate)” value read?
The value was “high polyreactivity”.

Which “polyreactivity (PSR sort gate)” value does the source give for “QVQLVESGGGLVQAGGSLRLSCADSGSIFGPYAMGWYRQAPGKEREFVAAISRSGTRTNYADSVKGRFTISRDNAKNTVYLQMNSLKPEDTAVYYCNARYVSASRNRGKSRYDYWGLGTQVTVSS” here?
Its value is “high polyreactivity”.

Which “polyreactivity (PSR sort gate)” value does the source give for “QVQLVESGGGLVQAGGSLRLSCAASGRIFNVNAMGWYRQAPGKERDLVARIDTGVGTKYADSVKGRFTISRDNAKNTVYLQMNSLKPEDTAVYYCAARSFSGYGYLVRPKWYYYWGQGTQVTVSS” here?
Its value is “high polyreactivity”.

With “QVQLQESDGGLVQAGGSLRLSCAASGNIFPTDRMGRYRQAPAKVLEFVATISHGGSTNYADSVKGRFTISRDNATNTVYLQMNSLKPEDTAVYYCAVWSLGRCRHYYWGQGTHVTVSS” as the sequence, how does the “polyreactivity (PSR sort gate)” value read?
Its value is “low polyreactivity”.

With “QVQLVESGGGLVQAGGSLRLSCAASGRIFGVYAMGWYRQAPGKERELVAAIDRRGGRTYYADSVKGRFTISRDNAKNTVYLQMNSLKPEDTAVYYCATARYRAEMGYWGQGTQVTVSS” as the sequence, how does the “polyreactivity (PSR sort gate)” value read?
The value was “high polyreactivity”.

With “QVQLVESGGGLVQAGGSLRLSCAASGRTLYGNAMGWYRQAPGKEREFVAAITRSGGTTYYADSVKGRFTISRDNAKNTVYLQMNSLKPEDTAVYYCATAFRGYTGLFYWGQGTQVTVSS” as the sequence, how does the “polyreactivity (PSR sort gate)” value read?
Its value is “high polyreactivity”.

With “QVQLVESGGGLVQAGGSLRLSCAASGRIFVGYTMGWYRQAPGKERELVAAITSGGSTYYADSVKGRFTISRDNAKNTVYLQMNSLNPEDTADYYCNAAYQFDSYHLGGNRYEYWGQGTQETVSS” as the sequence, how does the “polyreactivity (PSR sort gate)” value read?
Its value is “low polyreactivity”.

With “QVQLVDSVGGLVQAGGSLRLSCAASGFTFWYYAMGWYRQAPGKERELVAAISSGGSTYYADSVKGRFTISRDNAKNTVYLQMNSLKPEDTAVYYCAARIGARGRGGKDRVYYWGQGTQVTVSS” as the sequence, how does the “polyreactivity (PSR sort gate)” value read?
The value was “high polyreactivity”.

For “QVQLVESWGGLVQAGGSLRLSCADSGRIFRGYGMGWYIQAPGKERELVAVISYSGTPTYYADSVKGRFTISRDNAKNTVYLQMNSLKAEDTAVYYCAARLYWIPPSPSRYDYWLQGTQVTVSS”, which “polyreactivity (PSR sort gate)” value is on record?
Its value is “high polyreactivity”.

With “QVQLVESGGGLVQAGGSLRLSCAASGRIFKSYDIGWYRQAPGKEMELVSAISQSGGGTYYADSVKGRFTISRDNAKNTVYLQMNSLKPEDTAVYYCAAYRRVNRYQKIDNYWGQGTQVTVSS” as the sequence, how does the “polyreactivity (PSR sort gate)” value read?
The value was “high polyreactivity”.

With “QVQLVESGGGLVQAGGSLRVSCAASGFIFHYYAMGWYRQAPGKERELVAAITYSGGSTYYADSVKGRFTISRDNAKNTVYLQMNSMKPVDTAVYYCNADSVLDLYWNMDYWGQVTQVTVSS” as the sequence, how does the “polyreactivity (PSR sort gate)” value read?
Its value is “low polyreactivity”.

For “QVQLVESGGGLVQAGGSLRLSCAASGFIFYQYAMGWYRQAPGKERELVATISFRGGRTYYADSVKGRFTISRDNAKNTVYLQMNSLKPEDTAVYYCNAKRVSSRFYKWDYYWGQGTEVTVSS”, which “polyreactivity (PSR sort gate)” value is on record?
Its value is “high polyreactivity”.

With “QVQLVESGGGLVQAGVSLRLSCAASGTIFYTYTMGWYRQAPRKERELVATIRSTGSTDYADSVKGRFTISRDNAMNTVYLQMNSLKREDTAVYYCNADRFGDYDYWGQGTQVTVSS” as the sequence, how does the “polyreactivity (PSR sort gate)” value read?
The value was “low polyreactivity”.

Which “polyreactivity (PSR sort gate)” value does the source give for “QVHLVESGGGLVQAGGSLRLSCAASGGIFKQYAMGLYRQAPGKERDLVAAITWSGGSTYYADSVKGRFTISRDNAKNTVYLQMNRLKPVDTAVYYCAADRRYLDRDKHRYGYWGQGTQVTVSS” here?
The value was “low polyreactivity”.

Which “polyreactivity (PSR sort gate)” value does the source give for “QVQLVESGGGLVQAGGSLRLSCAASGFIFRYYAMGWYTQAPGKERELVAAISYSGGSTYYADSVKGRFTITRDNAKNTVYLQMNSLKPEDTAVYYCAAVTVKSNQYLYYVYPYGMGYWGQGTQVTVSS” here?
The value was “high polyreactivity”.

Which “polyreactivity (PSR sort gate)” value does the source give for “QVQLVESGGGLVQAGGSLRLSCAASGSIFKDYAMGWYRQAPGKERELVASITSGGRTYADSVKGRFTISRDNAKNTVYLQMNSLKPEDTAVYYCNTAHSKAWQYDYWGQGTQVTVSS” here?
The value was “high polyreactivity”.

With “QVQLVESGGGLVQAGGSLRLSCAASGYTFHYNTMGGYRQAPGKERELVATISDGGSTNYADSVKGRFTISRDNAKNTVYLQMNSLKPEDTAVYYCAALYQQFQSALVPYFDVIEEDYWGQGTQVTVSS” as the sequence, how does the “polyreactivity (PSR sort gate)” value read?
The value was “low polyreactivity”.

With “QVQLDESGGGLVQAGGSHRLSCAASGYIFGYYAMGWSRQAPGKERELVAAISKSGTDTYYADSVKGRFTISRDYAKNTVFLQMNSLKPEDTAVYYCNALLRGYSYGYDYWGQGTQVTVSS” as the sequence, how does the “polyreactivity (PSR sort gate)” value read?
Its value is “high polyreactivity”.

For “QVQLVESGGGLVQAGGSLRLSCAAYEFIFARNGMGWSRQAPGKERELVAAITNSGSTYADSVKGRFTISRDNAKNTVYLQMNSLKPEDTAVYYCNKDPGNVSSYNGGGYWGQGTQVTVSS”, which “polyreactivity (PSR sort gate)” value is on record?
The value was “low polyreactivity”.

With “QVQLVESGGGLVQAGGSLRLSCAASGTFVLSAMGWYRPAPGKERELVAAISKTGRTYYADSVKGRFTISRDNAKNTVYLQMNSLKPEDTSVYYCAAQRFSKFGYWGQGTQVTVSS” as the sequence, how does the “polyreactivity (PSR sort gate)” value read?
The value was “high polyreactivity”.

With “QVQLVESGGGLVQAGGSLRLSCAASGSIFLSNAMGWYRQSPGKERELVAAISSSGGSTYYADSVKGRFTISRDNAKNTVYLQMNSLKPEDTAVYYCAATGYGFRGRFDYWGQGTQVTVSS” as the sequence, how does the “polyreactivity (PSR sort gate)” value read?
The value was “low polyreactivity”.

For “QVQLVESGGGLVQSGGSLRLTCAASGIIFPRYAMGWYRQAPGKERELVAAITRRGGRTYYADSVKGRFTISRDNAKNTVYLQMNSLKPEDTAVYYCNADFISTRPPKATDEDYWGQGTQVTVSS”, which “polyreactivity (PSR sort gate)” value is on record?
The value was “high polyreactivity”.

Which “polyreactivity (PSR sort gate)” value does the source give for “QVQLVESGGGLVQAGGSLLLSCAASGIIFGTNAMGWYRQAPGKERELVAGITSSGDSTYYADSVKGRFTISRDNAKNTVYLQMNSLKPEDTAVYYCAREIRTREFDSWGQGTQVTVSS” here?
The value was “low polyreactivity”.

With “QVLLVESGGGLVQSGRSLRLSCAASGLIFSRYAMGWYRPAPGKERELVAAITSGTSTYYADSVKGRFTISRDNAKNTVYLQLNSLIPEDTAVYYCAARWLTFNARYYPYYYWGQGTQVTVSS” as the sequence, how does the “polyreactivity (PSR sort gate)” value read?
Its value is “high polyreactivity”.

With “QVQLVESGGGLVQAGGSLRLSCAASGSIFGVYAMGWYRQAPGKERELVAAINSGGTTYADSVKGRFTISRDNAKNTVYLQMNSLKPEDTAVYYCNADRWGPEDPYRVRDRFDYWGQGTQVTVSS” as the sequence, how does the “polyreactivity (PSR sort gate)” value read?
The value was “low polyreactivity”.

With “KVQLVESGGGLVQAGGSLRLSCAASGGIFYYYAMGWYRQAPGKERELVAAISSGGGTNYADSVKGRFTISRDNAKNTVYLQMNSVKPEDTAVYYCAADQGRDTGYDYWGQGTQVTVSS” as the sequence, how does the “polyreactivity (PSR sort gate)” value read?
Its value is “low polyreactivity”.

With “QVQLVESGGGLVQAGGSLRLSCAASGRTFGTNTMGWYRQAPGKVRELVATISSSSGSTYYADSVKGRFTISRDNAKNTVYFQMNSLKPEDTAVYYCAALCRWRYKRYDYWGQGTQVTVSS” as the sequence, how does the “polyreactivity (PSR sort gate)” value read?
Its value is “high polyreactivity”.

For “QVQLVESGGGLVQAGGSLRLSCAASGSIFEAYAMGWYRQAPGKERELVAAITQSGGSTYYADSVKGRFTISRDNAKNTVYLQMNSLKPEDTAVYYCAADFKYRGPSGDYDYWGQGTQVTVSS”, which “polyreactivity (PSR sort gate)” value is on record?
Its value is “low polyreactivity”.

For “QVQLVESGGGLVQAGGRIRLTCAASGFTFKAYSMGCDRQAPGKERELVAAITKSGGRTFYADSVKGRFRISRDNAKNTVYLQMNSLKPEDTAVYYCAASYTVYYWGQGTQVTVSS”, which “polyreactivity (PSR sort gate)” value is on record?
The value was “high polyreactivity”.

For “QVQLVESVGGLVQAGGRLRLSCAASGSTFRYYAMGRYRPATGKESELVAAISRSGGSTYYADSVKGRFTISRDNAKNTVYLQMNSLKTEDTAVYYSNGRYYTFYSIYDYWGQGTQVTVSS”, which “polyreactivity (PSR sort gate)” value is on record?
The value was “high polyreactivity”.

For “QVQLVDSGGGLVQAGGSLRLSCAASGSTLVYKDMGLYRQAPGKEREFVAAIRSNDGSTYYADSVKGRFTISRDNAKNTVYLQMNSLKPEDTAVYYCAKGRYAYSIWDDYWGQGTQVTVSS”, which “polyreactivity (PSR sort gate)” value is on record?
The value was “low polyreactivity”.

Which “polyreactivity (PSR sort gate)” value does the source give for “QVQLVESGAGLVQAGVSLRLSCAASGRIFYYYTMGWYRHAPGKERELVASITIGDSTYYADSVKGRFTISRDNAKNTVYLQMNSLKPEDTAVYYCAAVKTVDVGYDYWGQGTQVTVSS” here?
Its value is “low polyreactivity”.

Which “polyreactivity (PSR sort gate)” value does the source give for “QDQLVESGGGLVQAGGSLRLSCAASGSNFSWNDMGWYRQAPGKERELVAAITSDDTSTYYADSVKGRFTISRDNAKNSVYLQMNSLKPEDTAVYYCAADYGNPFDYWGQGTQVTVSS” here?
The value was “low polyreactivity”.

With “QVQLVDSGGGLVQAGGSLSLSCAASGRTFNWYTMGWYRQAPGKEMELVARINGRGGSTYYADSVKGRFTISRDNAKNTVYLQMNSLKPEDTAVYYCNKPHRWPQAGYGYWGQGTQVTVSS” as the sequence, how does the “polyreactivity (PSR sort gate)” value read?
The value was “high polyreactivity”.

For “QVQLQESGGGLVQAGGSQRLSCAASGYIIYFQYMGWYRQAPRKEREFVAAISDGANTNYADSVKGRFTISRDNAKNTVYLQMNSLKPEDTAVYYCAVYADENYYYIYWGQGTQVTVSS”, which “polyreactivity (PSR sort gate)” value is on record?
Its value is “low polyreactivity”.

Which “polyreactivity (PSR sort gate)” value does the source give for “QVQLVESGGGLVQAGGSLRLTCAASGLIFRPYTMGWYRQAPGKERELVATISGSGASTNYADSVKGRFTNSRDNAKNTVYFQMNSLKPEDTSVYYCKGRSYSRMYYWGQGTQVTVSS” here?
The value was “high polyreactivity”.

With “QVQLVESGGGLVQAGGSLRLSCAASGRTLYIYAMGWYRQAPGKERELVAAIRRIGGRTYYADSVKGRFTISRDNAKNTVYLQMNSLKPEDTAVYYCNARSYRLRFSEMDYWGQGTQVTVSS” as the sequence, how does the “polyreactivity (PSR sort gate)” value read?
Its value is “high polyreactivity”.

Which “polyreactivity (PSR sort gate)” value does the source give for “QVQLVESGGGLVQAGGSLRLSCAASGSIFVYYAMGWYRQAPGKERELVAAISSGGRTYYADSVKGRFTISRDNAKNTVSLQMNSLKPEDTAVYYCNAVHYFQYGYYSWGQGTQVTVSS” here?
Its value is “high polyreactivity”.

With “QVQLVESGGGLVQAGGSLRLTCAASGSIFWRNTMGWYRQAPGKERELVAAIRNVGSTYYADSVKGRFTISRDNAKNTVYLQMNSLKPEDTAVYYCAVVYPARGSGNDSWGQGSQVTVSS” as the sequence, how does the “polyreactivity (PSR sort gate)” value read?
The value was “high polyreactivity”.

— the nanobody polyreactivity screen of Harvey et al. (2022)
